Data set [1] deals with Chronic lymphocytic leukemia. Put plainly: CP-1019, Chronic lymphocytic leukemia patients treated with MEDI-551 or Rituximab+Bendamustine. The format is in vivo, human. To be noted: of 22 MEDI-551-treated / 12 Rituximab-treated patients. As to the method:
miR-629 expression levels were measured in baseline peripheral blood mononucleated cell (PBMC) samples from Chronic lymphocytic leukemia patients treated with MEDI-551 or Rituximab+Bendamustine (CP-1019). • 22 MEDI-551-treated patients (10 CR/PR; 3 PD; 4 SD) • 12 Rituximab-treated patients (6 CR/PR; 2 PD; 2 SD)

For a further data set, the system named is RL. Put plainly: in vitro ADCC assay. The format is cell-based, human.
The subject of data set [2] is Karpas 422 cells expressing miR-629. Put plainly: in vitro ADCC in miR-629 over-expressing cells. The following applies: miR-629 over-expression vs vector control. The format is cell-based, human. Here is the method:
FIGS. 12A and 12B are graphs. […] LDH release has been a known prognostic factor in lymphoma for many years and is measured routinely in clinical practice. […] Therefore, it is likely that miR-629 expression levels are related to the aggressiveness of the tumor. This could, in part, explain the correlation between miR-629 and response to MEDI-551.
The diffuse large B-cell lymphoma cell line Karpas-422 was transduced with a lentiviral vector over-expressing miR-629 or a scrambled miRNA control (Open Biosystems, Huntsville, Ala.) at an MOI of 2-20. Transduced cells were expanded for 1-2 weeks. Utilizing RFP, cells were sorted by fluorescence-activated cell sorting (FACS) into high miR-629 and low miR-629 populations. Clones were also generated using the limiting dilution method. Over-expression of miR-629 was evaluated by TaqMan QPCR.

For data set [3], the system named is Relapsed or Refractory Advanced B-Cell Malignancies. Description: Clinical Trial No. CP204, Phase 1 dose-escalation study of MEDI-551 as a single agent. It is filed as in vivo, human. Here is the method: miR-629 expression levels were measured in baseline whole blood samples from diffuse large B cell lymphoma (DLBCL), follicular lymphoma (FL), and Chronic lymphocytic leukemia (CLL) patients treated with an anti-CD19 antibody treatment as a single agent in Clinical Trial No. CP204, A Phase 1, Dose-escalation Study of MEDI-551, a Humanized Monoclonal Antibody Directed Against CD19, in Adult Subjects With Relapsed or Refractory Advanced B-Cell Malignancies.

A further data set has as its system Oci-Ly-19. Description: in vitro ADCC assay. It is filed as cell-based, human. The following applies: Oci-Ly-19, in vitro ADCC.
The conditions of data set [4]: afucosylated mAb relative to mAb anti-CD19-2; cited from earlier work.
The target in another data set is FccRIIIA (Homo sapiens, UniProt P08637). To be noted: afucosylated mAb relative to mAb anti-CD19-2; cited from earlier work.
In a further data set the test system is SUD-HL-6. Description: in vitro ADCC assay. It is filed as cell-based, human. To be noted: SUD-HL-6, in vitro ADCC.
In the next data set the test system is ARH-77. Description: in vitro ADCC assay. It is filed as cell-based, human. The following applies: ARH-77, in vitro ADCC.
The next data set concerns Toledo cell lines. Description: in vitro ADCC assay. It is filed as cell-based, human.
Data set [5] deals with DB (diffuse large cell lymphoma). Description: in vitro ADCC assay. It is filed as cell-based, human.
The test system of data set [6] is diffuse large B-cell lymphoma cell lines. Description: in vitro ADCC assays, high versus low sensitivity cell lines. The following applies: in other cases 1000-fold or more. It is filed as cell-based, human. The text has this: The following microRNAs had significant differences: miR-629; miR-99b; miR-let-7e; miR-15a; and miR-29a.
A further data set deals with SU-DHL-6. Put plainly: ADCC assay after miR-629 over-expression. To be noted: SU-DHL-6, miR-629 over-expressed (miR-629 mimic). It is filed as cell-based, human. As to the method:
(§1) FIGS. 14A-D are graphs showing the results of an antibody dependent cytotoxicity (ADCC) assay. miR-629 was overexpressed in the specified cell type, and the cells were then treated with an anti-CD19 antibody (MEDI551).
(§2) The effect of altering miR-629 on sensitivity to treatment with an anti-CD19 antibody (MEDI551) was explored. Human leukemia and lymphoma cell lines Daudi, Toledo, and RL were obtained from American Type Culture Collection (ATCC); Karpas 1106P, Karpas 422, OCI-Ly-19, MEC2 were obtained from Deutsche Sammlung von Mikroorganismen und Zellkulturen (DSMZ, Germany). Cell lines were transfected with […] of a miR-629 mimic (Karpas 1106P, Karpas 422, Daudi, MEC2, OCI-Ly-19, SU-DHL-6, and Toledo), a miR-629 hairpin inhibitor (RL and ARH-77), or respective negative control oligonucleotides (all from Dharmacon) using PrimeFect (Lonza) for 24 hours. CD19 and CD20 surface expression was determined by flow cytometry (LSRII, BD Biosciences) using their respective fluorescently labeled monoclonal antibodies. Surface expression is reported as mean fluorescent intensity (MFI) and was averaged for untransfected as well as miR-629 and negative control transfected cells.

In another data set the test system is Toledo. Put plainly: ADCC assay after miR-629 over-expression. The format is cell-based, human. The following applies: miR-629 over-expressed (miR-629 mimic). Here is the method: as §1, §2
The test system of another data set is MEC-2. Put plainly: ADCC assay after miR-629 over-expression. It is filed as cell-based, human. The following applies: MEC-2, miR-629 over-expressed (miR-629 mimic). As to the method: as §1, §2
A further data set deals with Daudi. Description: ADCC assay after miR-629 over-expression. It is filed as cell-based, human. To be noted: miR-629 over-expressed (miR-629 mimic). Here is the method:
as §1, §2

The next data set concerns Karpas-422. Description: in vitro Antibody-dependent cellular cytotoxicity (ADCC) assay. It is filed as cell-based, human. To be noted: Karpas-422, in vitro ADCC.

Sequence of FccRIIIA (P08637 17-254): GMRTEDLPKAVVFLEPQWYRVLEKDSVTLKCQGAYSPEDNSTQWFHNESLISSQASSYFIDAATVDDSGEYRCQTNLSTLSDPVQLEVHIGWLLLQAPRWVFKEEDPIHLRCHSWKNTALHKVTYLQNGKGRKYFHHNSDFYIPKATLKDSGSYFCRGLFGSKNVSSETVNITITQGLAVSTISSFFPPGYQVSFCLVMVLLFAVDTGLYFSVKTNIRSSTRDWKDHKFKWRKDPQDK

With “Rituximab: anti-CD20 antibody therapy used as comparator [reference compound]”, in data set [1], the “CR/PR, number of patients” value amounted to 6 and the “PD, number of patients” value was 2.

B1: MEDI-551: afucosylated form of the CD19 mAb anti-CD19-2, developed by humanization and affinity optimization of the HB12b mAb (antibody, chains of the INN, looked up, V domains shown)
VH: EVQLVESGGGLVQPGGSLRLSCAASGFTFSSSWMNWVRQAPGKGLEWVGRIYPGDGDTNYNVKFKGRFTISRDDSKNSLYLQMNSLKTEDTAVYYCARSGFITTVRDFDYWGQGTLVTVSS
VL: EIVLTQSPDFQSVTPKEKVTITCRASESVDTFGISFMNWFQQKPDQSPKLLIHEASNQGSGVPSRFSGSGSGTDFTLTINSLEAEDAATYYCQQSKEVPFTFGGGTKVEIK
modifications: afucosylated
For B1, the “sensitivity to anti-CD19 antibody treatment” value is on record as “low sensitivity” in the data set with RL; “high sensitivity” with Oci-Ly-19; “high sensitivity” in the data set with SUD-HL-6; “low sensitivity” in the data set on ARH-77; “high sensitivity” in the data set with Toledo cell lines; “low sensitivity” in data set [5]. Also, the “sensitivity to anti-CD19 antibody treatment” value with Karpas-422 is “highly sensitive”; with Karpas-422 (listed as anti-CD19 antibody), “high sensitivity”. Further, the “shift in Ec50 for anti-CD19 antibody treatment in in vitro ADCC” value in data set [2] is recorded as “slight shift”. In addition, the “CR/PR (complete or partial response), number of patients” value in data set [3] (Chronic lymphocytic leukemia) was found to be 3; in data set [3] (diffuse large B-cell lymphoma), 5; in data set [3] (follicular lymphoma), 6. In addition, the “PD (progressive disease), number of patients” value in data set [3] (Chronic lymphocytic leukemia) turned out to be 3; in [3] (diffuse large B-cell lymphoma) it was 10; in data set [3] (follicular lymphoma) it was 2. In [4], the ADCC activity entry was “enhanced”. Also, in the data set with FccRIIIA, the “affinity to FccRIIIA” value is recorded as “increased”. Further, the “CR/PR, number of patients” value in data set [1] was determined as 10. In data set [1], the “PD, number of patients” value amounted to 3. Moreover, the “EC50s for the high sensitivity cell lines lower than the low sensitivity cell lines” value in data set [6] is recorded as “at least 100 fold”. Also, the difference in cytotoxicity in the data set with SU-DHL-6 and in the data set with Toledo was 15-20% throughout. Moreover, the “reduced sensitivity to anti-CD19 antibody” value in the data set on MEC-2 and in the data set with Daudi was 15-25% throughout.

The record behind these values is US20170088628A1, “Compositions and Methods for Identifying B Cell Malignancies Responsive to B Cell Depleting Therapy” (MedImmune, LLC, priority 2014, published 2017).
